Reference: paper PMC9628817

Columns and labels:
[1] = molecular target: CelA203, lichenase (β-1,3-1,4-glucanase) from Bacillus subtilis B110 (Bacillus subtilis B110); experiment: SEC; FPLC, Enrich SEC 650 10 × 300 column, 20 mM Tris-HCl pH 7.0, 0.5 ml/min; calibrated with HMW native protein markers (66-669); polymer and monomer peaks
[2] = molecular target: CelA203, lichenase (β-1,3-1,4-glucanase) from Bacillus subtilis B110 (Bacillus subtilis B110); experiment: SDS-PAGE of unboiled sample, mass from a mobility (Rf) standard curve; purified CelA203, unboiled, 10% SDS-PAGE; tetramer band and weak monomer band; tetramer to monomers

For “CelA203, lichenase (β-1,3-1,4-glucanase) from Bacillus subtilis B110 (enzyme)”, the stoichiometry N [1] was 4 and the stoichiometry N [2] was 4.07.
